Reference: patent US20160279215A1, “NOVEL PEPTIDES AND COMBINATION OF PEPTIDES FOR USE IN IMMUNOTHERAPY AGAINST VARIOUS TUMORS” (immatics biotechnologies GmbH, priority 2015, published 2016)

Tested on: CD8+ T cells of healthy HLA-A*02 donors
Assay: In vitro immunogenicity: T-cell priming with aAPCs loaded with peptide/MHC and anti-CD28, pMHC multimer readout
Type: cell-based, human
Conditions: percentage of positive donors, in vitro immunogenicity of HLA class I peptides
Text: In order to obtain information regarding the immunogenicity of the TUMAPs of the present invention, the inventors performed investigations using an in vitro T-cell priming assay based on repeated stimulations of CD8+ T cells with artificial antigen presenting cells (aAPCs) loaded with peptide/MHC complexes and anti-CD28 antibody.
In order to perform in vitro stimulations by artificial antigen presenting cells loaded with peptide-MHC complex (pMHC) and anti-CD28 antibody, the inventors first isolated CD8+ T cells from fresh HLA-A*02 leukapheresis products via positive selection using CD8 microbeads (Miltenyi Biotec, Bergisch-Gladbach, Germany) of healthy donors obtained from the University clinics Mannheim, Germany, after informed consent. PBMCs and isolated CD8+ lymphocytes were incubated in T-cell medium (TCM) until use consisting of RPMI-Glutamax (Invitrogen, Karlsruhe, Germany) supplemented with 10% heat inactivated human AB serum (PAN-Biotech, Aidenbach, Germany), 100 U/ml Penicillin/100 μg/ml Streptomycin (Cambrex, Cologne, Germany), 1 mM sodium pyruvate (CC Pro, Oberdorla, Germany), 20 μg/ml Gentamycin (Cambrex). 2.5 ng/ml IL-7 (PromoCell, Heidelberg, Germany) and 10 U/ml IL-2 (Novartis Pharma, Nürnberg, Germany) were also added to the TCM at this step. Generation of pMHC/anti-CD28 coated beads, T-cell stimulations and readout was performed in a highly defined in vitro system using four different pMHC molecules per stimulation condition and 8 different pMHC molecules per readout condition.
The purified co-stimulatory mouse IgG2a anti human CD28 Ab 9.3 (Jung et al., 1987) was chemically biotinylated using Sulfo-N-hydroxysuccinimidobiotin as recommended by the manufacturer (Perbio, Bonn, Germany). Beads used were 5.6 μm diameter streptavidin coated polystyrene particles (Bangs Laboratories, Illinois, USA).
pMHC used for positive and negative control stimulations were A*0201/MLA-001 (peptide […] (SEQ ID NO. 289) from modified Melan-A/MART-1) and A*0201/DDX5-001 ([…] from DDX5, SEQ ID NO. 290), respectively.
800.000 beads/200 μl were coated in 96-well plates in the presence of 4×12.5 ng different biotin-pMHC, washed and 600 ng biotin anti-CD28 were added subsequently in a volume of 200 μl. Stimulations were initiated in 96-well plates by co-incubating […] CD8+ T cells with 2×10^5 washed coated beads in 200 μl TCM supplemented with 5 ng/ml IL-12 (PromoCell) for 3 days at 37° C. Half of the medium was then exchanged by fresh TCM supplemented with 80 U/ml IL-2 and incubating was continued for 4 days at 37° C. This stimulation cycle was performed for a total of three times. For the pMHC multimer readout using 8 different pMHC molecules per condition, a two-dimensional combinatorial coding approach was used as previously described (Andersen et al., 2012) with minor modifications encompassing coupling to 5 different fluorochromes. Finally, multimeric analyses were performed by staining the cells with Live/dead near IR dye (Invitrogen, Karlsruhe, Germany), CD8-FITC antibody clone SK1 (BD, Heidelberg, Germany) and fluorescent pMHC multimers. For analysis, a BD LSRII SORP cytometer equipped with appropriate lasers and filters was used. Peptide specific cells were calculated as percentage of total CD8+ cells. Evaluation of multimeric analysis was done using the FlowJo software (Tree Star, Oreg., USA). In vitro priming of specific multimer+ CD8+ lymphocytes was detected by comparing to negative control stimulations.
Exemplary flow cytometry results after TUMAP-specific multimer staining for 15 peptides of the invention are shown in FIGS. 3 and 6 together with corresponding negative controls.

Row | Molecule | donors
1 | 287 (KIQEILTQV; listed as Homo sapiens) [compound 287] | +++ (50%-69% = +++)
2 | 288 (SLYKGLLSV; listed as Homo sapiens) [compound 288] | ++++ (>= 70% = ++++)

Same assay, conditions: percentage of positive wells, in vitro immunogenicity of HLA class I peptides

Row | Molecule | wells
3 | 287 (KIQEILTQV; listed as Homo sapiens) [compound 287] | + (<20% = +)
4 | 288 (SLYKGLLSV; listed as Homo sapiens) [compound 288] | ++ (21%-49% = ++)

Target: T1, HLA-A*02:01 (human)
T1 construct: MHC monomers captured on streptavidin plates; the UV-sensitive peptide is cleaved and exchanged with the test peptide; also called peptide-receptive MHC molecules; MHC class I
Assay: UV ligand-exchange ELISA (anti-b2m); ++ = exchange yield >=20%
Conditions: not given
Text: Candidate peptides for T cell based therapies according to the present invention were further tested for their MHC binding capacity (affinity). The individual peptide-MHC complexes were produced by UV-ligand exchange, where a UV-sensitive peptide is cleaved upon UV-irradiation, and exchanged with the peptide of interest as analyzed. Only peptide candidates that can effectively bind and stabilize the peptide-receptive MHC molecules prevent dissociation of the MHC complexes. To determine the yield of the exchange reaction, an ELISA was performed based on the detection of the light chain (β2m) of stabilized MHC complexes. The assay was performed as generally described in Rodenko et al. (Rodenko et al., 2006).
96 well MAXISorp plates (NUNC) were coated over night with 2 ug/ml streptavidin in PBS at room temperature, washed 4× and blocked for 1 h at 37° C. in 2% BSA containing blocking buffer. Refolded HLA-A*02:01/MLA-001 monomers served as standards, covering the range of 15-500 ng/ml. Peptide-MHC monomers of the UV-exchange reaction were diluted 100 fold in blocking buffer. Samples were incubated for 1 h at 37° C., washed four times, incubated with 2 ug/ml HRP conjugated anti-β2m for 1 h at 37° C., washed again and detected with TMB solution that is stopped with […]. Absorption was measured at 450 nm. Candidate peptides that show a high exchange yield (preferably higher than 50%, most preferred higher than 75%) are generally preferred for a generation and production of antibodies or fragments thereof, and/or T cell receptors or fragments thereof, as they show sufficient avidity to the MHC molecules and prevent dissociation of the MHC complexes.

Row | Molecule | peptide exchange yield [%]
5 | ILAEEPIYI | 20 to 50
6 | AMFPDTIPRV | 20 to 50
7 | FLLDKPQDL | 20 to 50
8 | HMSGKLTNV | 20 to 50
9 | KLMDPGSLPPL | 20 to 50
10 | GLTEKTVLV | 20 to 50
11 | AVPPPPSSV | 20 to 50
12 | GLLENSPHL | 20 to 50
13 | ALGDKFLLRV | 20 to 50
14 | AILNVDEKNQV | 20 to 50
15 | IKVTDPQLLEL | 20 to 50
16 | KMISAIPTL | 20 to 50
17 | AMLASQTEA | 20 to 50
18 | ALDTTRHEL | 20 to 50
19 | KLIGNIHGNEV | 20 to 50
20 | KLLDKPEQFL (also called FMN1-001) | 20 to 50
21 | KQMSISTGL | 20 to 50
22 | GLAFLPASV | 20 to 50
23 | FVMEGEPPKL | 20 to 50

Further lines, results first:

Row | peptide exchange yield [%] | Molecule
24 | 20 to 50 | QIVELIEKI
25 | 20 to 50 | LKVLKADVVL
26 | 20 to 50 | VLMDEGAVLTL
27 | 20 to 50 | TIGIPFPNV
28 | 20 to 50 | SLSEKSPEV
29 | 20 to 50 | VLLGSVVIFA
30 | 20 to 50 | TLHDQVHLL (also called ESR1-001)
31 | 20 to 50 | TLYPGRFDYV
32 | 20 to 50 | VIIKGLEEI
33 | 20 to 50 | SLYALHVKA
34 | 20 to 50 | SLDKDIVAL
35 | 20 to 50 | YLADTVQKL
36 | 20 to 50 | LDSEALLTL
37 | 20 to 50 | QLVQRVASV
38 | 20 to 50 | SLNKQIETV
39 | 20 to 50 | TLDRNSLYV
40 | 20 to 50 | VLSTRVTNV
41 | 20 to 50 | SLYAGSNNQV
42 | 20 to 50 | VLQQESNFL
43 | 20 to 50 | TVLEEIGNRV
44 | 20 to 50 | LLLESDPKVYSL
45 | 20 to 50 | RLYGYFHDA
46 | 20 to 50 | RVLPGQAVTGV
47 | 20 to 50 | LLPSIFLMV
